From patent US20260210971A1 (Pfizer, published 2026)
Positions count from the first letter of the chain named. Like-named read-outs stand apart in the source and are kept apart here.

T1: endogenous TL1A of stimulated human peripheral blood (human, UniProt O95150 72-251, limits assumed)
T1 sequence (looked up): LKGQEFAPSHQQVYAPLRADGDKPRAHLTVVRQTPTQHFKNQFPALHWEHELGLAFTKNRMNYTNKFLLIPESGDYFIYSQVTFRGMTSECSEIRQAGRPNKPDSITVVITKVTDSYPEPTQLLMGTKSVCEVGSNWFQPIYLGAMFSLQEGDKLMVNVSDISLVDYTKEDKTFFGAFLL

T2: recombinant soluble rat TL1A (rat, UniProt Q8K3Y7 76-252)
T2 construct: also called rat rsTL1A
T2 sequence: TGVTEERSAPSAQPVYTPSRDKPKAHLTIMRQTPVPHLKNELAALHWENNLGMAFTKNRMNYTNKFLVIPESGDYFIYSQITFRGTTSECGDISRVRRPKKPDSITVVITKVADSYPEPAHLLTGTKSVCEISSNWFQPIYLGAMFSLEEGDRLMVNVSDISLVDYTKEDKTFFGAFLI

T3: recombinant soluble rabbit TL1A (rabbit)
T3 construct: also called rabbit rsTL1A
T3 chain: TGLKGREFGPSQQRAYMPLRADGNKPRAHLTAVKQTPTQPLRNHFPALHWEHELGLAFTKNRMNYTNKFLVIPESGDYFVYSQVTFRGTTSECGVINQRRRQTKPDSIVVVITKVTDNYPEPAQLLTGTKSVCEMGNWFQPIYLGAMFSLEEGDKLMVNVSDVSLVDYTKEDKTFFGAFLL

T4: recombinant soluble cynomolgus monkey TL1A (cynomolgus monkey, UniProt O95150 72-251 (human entry))
T4 construct: also called cyno rsTL1A; cyno TL1A
T4 chain: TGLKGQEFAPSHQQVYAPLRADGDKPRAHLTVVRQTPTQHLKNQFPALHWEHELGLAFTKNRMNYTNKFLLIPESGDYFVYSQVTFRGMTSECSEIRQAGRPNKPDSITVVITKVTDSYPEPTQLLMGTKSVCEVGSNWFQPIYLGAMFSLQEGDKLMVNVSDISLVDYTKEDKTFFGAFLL

T5: recombinant soluble murine TL1A (mouse, UniProt Q5UBV8 75-252)
T5 construct: also called murine rsTL1A; mouse TL1A
T5 chain: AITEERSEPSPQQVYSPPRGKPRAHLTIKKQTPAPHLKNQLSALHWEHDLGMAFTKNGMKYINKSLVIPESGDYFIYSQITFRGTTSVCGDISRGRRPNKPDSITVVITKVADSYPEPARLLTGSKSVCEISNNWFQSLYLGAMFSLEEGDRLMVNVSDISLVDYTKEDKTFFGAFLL

T6: recombinant soluble human TL1A (human, UniProt O95150 71-251)
T6 construct: Homotrimer, expressed in HEK293 and purified over HitrapNTA; no tag is described; Used biotinylated in the HTRF assay and in flow cytometry; also called rsTL1A; hTL1A
T6 sequence: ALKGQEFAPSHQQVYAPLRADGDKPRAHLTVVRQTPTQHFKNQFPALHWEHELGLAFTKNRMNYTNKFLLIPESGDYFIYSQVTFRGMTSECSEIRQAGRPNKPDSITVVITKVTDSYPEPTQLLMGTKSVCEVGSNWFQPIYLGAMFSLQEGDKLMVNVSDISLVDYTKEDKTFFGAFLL

B1: anti-TL1A antibody 1D1 (antibody, human IgG1, kappa, V domains shown)
VH: QVQLVQSGAEVKKPGASVKVSCKASGYSFTYYGISWVRQAPGQGLEWMGWISTYNGNTNYARMLQGRVTMTTDTSTRTAYMELRSLRSDDTAVYYCARENYYGSGSYRGGMDVWGQGTTVTVSS
VL: EIVLTQSPATLSLSPGERATLSCRASQSVSSYLAWYQQKPGQAPRLLIYDASNRATGIPARFSGSGSGTDFTLTISSLEPEDFAVYYCQQRSNWPWTFGQGTKVEIKR
notes: Human IgG1 with effector-null triple mutation (hIgG1-3m), kappa; The first binning was done with the antibodies from the hybridoma screen; also called 1D1 parental; Parental 1D1
B2: 1D1 1.27 (antibody, human IgG1, kappa, V domains shown)
VH: B1 VH with S28D, N59H
VL: B1 VL
notes: Expressed as IgG1
B3: 1D1 with heavy chain mutation S28D (antibody, V domains shown)
VH: B1 VH with S28D
VL: EIVLTQSPATLSLSPGERATLSCRASQSVSSYLAWYQQKPGQAPRLLIYDASNRATGIPARFSGSGSGTDFTLTISSLEPEDFAVYYCQQRSNWPWTFGQGTKVEIK
notes: Point mutant of 1D1 CDR-H1
B4: 1D1 with heavy chain mutation S28Q (antibody, V domains shown)
VH: B1 VH with S28Q
VL: B3 VL
notes: Point mutant of 1D1 CDR-H1
B5: 1D1 with heavy chain mutation Y31H (antibody, V domains shown)
VH: B1 VH with Y31H
VL: B3 VL
notes: Point mutant of 1D1 CDR-H1

Columns and labels:
[1] = biological target: T1, endogenous TL1A of stimulated human …; experiment: cell-based or functional assay
[2] = biological target: T2, recombinant soluble rat TL1A; experiment: SPR, IgG captured on anti-hIgG, TL1A injected
Excerpt: (§1) The antibodies were captured via directly immobilized anti-human IgG (GE Healthcare) onto a carboxymethylated dextran sensor chip surface (CM5) using a Biacore T100 or T200 instrument. Anti-human IgG was immobilized through amine coupling to densities of approximately 4,000-13,000 response units (RU). […] At the end of each cycle, the entire anti-hIgG surface was regenerated by a 30-second pulse of 3M MgCl₂ followed by two consecutive 15-second pulses of PBS-NET. […] All injections were performed at 25° C. at a collection rate of 10 Hz. All sensorgrams were double referenced by using both a control surface and buffer injections. Rate constants were determined by fitting the data to a 1:1 model in Biacore T100, T200 evaluation software v1.0, or BIAevaluation software v4.1.1 and the equation KD=Kd/kₐ.
(§2) At the highest cytokine concentrations, the dissociation phase was sometimes extended to 60 minutes to achieve at least a 5% decrease in binding signal.

[3] = biological target: T3, recombinant soluble rabbit TL1A; experiment: SPR, IgG captured on anti-hIgG, TL1A injected
Excerpt: as §1, §2

[4] = biological target: T4, recombinant soluble cynomolgus monkey …; experiment: SPR, IgG captured on anti-hIgG, TL1A injected;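 on t1/2: biacore surface plasmon resonance on a dextran sensor chip, double-referenced sensorgrams fitted to a one-to-one binding model, KD taken as dissociation over association rate constant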
Excerpt: To characterize the binding kinetics of the anti-TL1A antibodies to TL1A by surface plasmon resonance, each anti-TL1A antibody was captured via directly immobilized anti-human IgG (GE Healthcare) onto a carboxymethylated dextran sensor chip surface (CM5) using a Biacore T100 or T200 instrument. Anti-human IgG was immobilized through amine coupling to densities of approximately 4,000-13,000 response units (RU). […] At the end of each cycle, the entire anti-human IgG (hIgG) surface was regenerated by a 30-second pulse of 3M MgCl₂ followed by two consecutive 15-second pulses of PBS-NET. All injections were performed at 25° C. at a collection rate of 10 Hz. All sensorgrams were double referenced by using both a control surface and buffer injections. Rate constants were determined by fitting the data to a 1:1 model in Biacore T100, T200 evaluation software v1.0, or BIAevaluation software v4.1.1 and the equation KD=kd/kₐ.
The anti-TL1A antibodies were captured onto immobilized anti-human Fc on a CM5 sensor chip on a Biacore T100 instrument. […] Rate constants shown in the table were determined by fitting to a 1:1 Langmuir binding model in BiaEvaluation v4.1.1 (fit lines shown in red). Data shown are the average and standard deviation of at least 3 independent surfaces between 2 experiments.

[5] = biological target: T4, recombinant soluble cynomolgus monkey …; experiment: KinExA, equilibrium in solution
Description: (§3) This assay involves pre-incubating antibody: antigen mixtures in solution long enough to reach equilibrium before measuring the level of unbound antibody using a solid phase component. […] Beads were blocked for 1 hour with PBS plus 10 mg/ml bovine serum albumin (bovine serum albumin, Sigma) at room temperature before being diluted up to a total of 27 ml in PBS. […] For each titration series, a buffer sample and a sample of antibody alone were included. Each antibody: TL1A mixture was tumbled at room temperature for at least six hours to reach equilibrium and then each mixture was injected over the solid phase of TL1A-coated beads in the instrument flow cell. […] Beads were replenished between each sample. Binding signals of detected free antibody were converted to percentage of free, unbound antibody as measured by the antibody only sample and plotted versus each concentration of TL1A. For each antibody, the KD and ABC controlled curves were fit simultaneously using n-Curve Analysis software v3.1.4 to fit the curves to the ‘affinity, unknown ligand’ model and measure an equilibrium KD.
(§4) Solution-based kinetic exclusion assays (KinExA) were carried out as an orthogonal technique to measure equilibrium KD values.

[6] = biological target: T5, recombinant soluble murine TL1A; experiment: KinExA, equilibrium in solution
Description: as §3, §4

[7] = biological target: T4, recombinant soluble cynomolgus monkey …; experiment: SPR, IgG captured on anti-hIgG, TL1A injected;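 on t1/2: biacore surface plasmon resonance on a dextran sensor chip, double-referenced sensorgrams fitted to a one-to-one binding model, KD taken as dissociation over association rate constant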
Excerpt: as §1, §2

[8] = biological target: T4, recombinant soluble cynomolgus monkey …; experiment: SPR, IgG captured on anti-hIgG, TL1A injected;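 on t1/2: biacore surface plasmon resonance on a dextran sensor chip, double-referenced sensorgrams fitted to a one-to-one binding model, KD taken as dissociation over association rate constant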
[9] = biological target: T5, recombinant soluble murine TL1A; experiment: SPR, IgG captured on anti-hIgG, TL1A injected;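 on koff: biacore measurement on a carboxymethylated dextran chip, double-referenced against a control surface and buffer, rates fitted to a one-to-one binding model, KD from koff over kon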;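 on kon: biacore measurement on a carboxymethylated dextran chip, double-referenced against a control surface and buffer, rates fitted to a one-to-one binding model, KD from koff over kon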
[10] = biological target: T5, recombinant soluble murine TL1A; experiment: SPR, IgG captured on anti-hIgG, TL1A injected;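 on koff: biacore measurement on a carboxymethylated dextran chip, double-referenced against a control surface and buffer, rates fitted to a one-to-one binding model, KD from koff over kon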;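 on kon: biacore measurement on a carboxymethylated dextran chip, double-referenced against a control surface and buffer, rates fitted to a one-to-one binding model, KD from koff over kon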
Excerpt: as §1, §2

[11] = biological target: T6, recombinant soluble human TL1A; experiment: SPR, IgG captured on anti-hIgG, TL1A injected; off rate too slow to measure
[12] = biological target: T6, recombinant soluble human TL1A; experiment: cell-based or functional assay
[13] = biological target: T6, recombinant soluble human TL1A; experiment: KinExA, equilibrium in solution
Description: as §3, §4

[14] = biological target: T6, recombinant soluble human TL1A; experiment: binding test of the 1D1 point mutants, method not named

Row | Binder | HWB Assay, average IC50 [1] [nM] | Kd [2] [nM] | koff [2] [s⁻¹] | kon [2] [M⁻¹ s⁻¹] | t1/2 [2] [min] | Kd [3] [nM] | koff [3] [s⁻¹] | kon [3] [M⁻¹ s⁻¹] | t1/2 [3] [min] | Kd [7] [nM] | koff [7] [s⁻¹] | kon [7] [M⁻¹ s⁻¹] | t1/2 [7] [min] | Kd [10] [nM] | koff [10] [s⁻¹] | kon [10] [M⁻¹ s⁻¹] | t1/2 [10] [min] | Kd [14] [nM] | further results
1 | B1 | 0.248 | 8.14 | 0.0134 | 1.71e+06 | 0.867 | 1.31 | 0.00079 | 610000 | 14.6 | 6.69 | 0.0041 | 600000 | 2.82 | 7.29 | 0.0036 | 490000 | 3.25 | – | Kd [4]: 7 nM; koff [4]: 0.0041 s⁻¹; kon [4]: 600000 M⁻¹ s⁻¹; Kd [5]: 0.384 nM; Kd [6]: 0.383 nM; Kd [8]: 1.67 nM; Kd [9]: 1.32 nM
2 | B2 | 0.000968 | 10.9 | 0.0072 | 670000 | 1.6 | 0.478 | 0.00014 | 300000 | 82.1 | 0.22 | 8e-05 | 390000 | 141 | 1.64 | 0.00043 | 270000 | 26.9 | – | Kd [11]: < 0.1 nM; Caspase Assay, average IC50 [12]: 0.0702 nM; NFkB Assay, average IC50 [12]: 0.14 nM; Kd [13]: 0.00769 nM
3 | B3 | – | – | – | – | – | – | – | – | – | – | – | – | – | – | – | – | – | 0.42 | –
4 | B4 | – | – | – | – | – | – | – | – | – | – | – | – | – | – | – | – | – | 6.8 | –
5 | B5 | – | – | – | – | – | – | – | – | – | – | – | – | – | – | – | – | – | 12.7 | –
